Data from PMC5099943, “Recombinant L-asparaginase 1 from Saccharomyces cerevisiae: an allosteric enzyme with antineoplastic activity” (Scientific Reports, 2016).

Columns and labels:
[1] = substrate: NC(=O)C[C@H](N)C(=O)O; assay: purified protein; details: 50 mM Tris-HCl pH 8.0, 37 °C, nH 1.1 ± 0.1
[2] = substrate: NC(=O)C[C@H](N)C(=O)O; assay: purified protein; format: biochemical, Saccharomyces cerevisiae; details: 50 mM Tris-HCl pH 8.0, 37 °C, no L-glutamine, sigmoidal, nH 2.2 ± 0.3

B1: EcASNase2 (L-ASNase type II from Escherichia coli, commercial) (Escherichia coli K-12) (protein)
chain: LPNITILATGGTIAGGGDSATKSNYTVGKVGVENLVNAVPQLKDIANVKGEQVVNIGSQDMNDNVWLTLAKKINTDCDKTDGFVITHGTDTMEETAYFLDLTVKCDKPVVMVGAMRPSTSMSADGPFNLYNAVVTAADKASANRGVLVVMNDTVLDGRDVTKTNTTDVATFKSVNYGPLGYIHNGKIDYQRTPARKHTSDTPFDVSKLNELPKVGIVYNYANASDLPAKALVDAGYDGIVSAGVGNGNLYKSVFDTLATAAKTGTAVVRSSRVPTGATTQDAEVDDAKYGFVASGTLNPQKARVLLQLALTQTKDPQQIQQIFNQY
Km [1]: 23 ± 5 µM
Vmax [1]: 0.032 µmol/min
kcat [1]: 134 s⁻¹
kcat/Km [1]: 5.8e+06 M⁻¹ s⁻¹

B2: ScASNase1 (L-asparaginase 1) (Saccharomyces cerevisiae S288C) (protein)
chain: LPRIKILGTGGTIASKAIDSSQTAGYHVDLTIQDLLDAIPDISKVCDIEYEQLCNVDSKDINEDILYKIYKGVSESLQAFDGIVITHGTDTLSETAFFIESTIDAGDVPIVFVGSMRPSTSVSADGPMNLYQAICIASNPKSRGRGVLVSLNDQISSGYYITKTNANSLDSFNVRQGYLGNFVNNEIHYYYPPVKPQGCHKFKLRVDGKHFKLPEVCILYAHQAFPPAIVNLVADKYDGIVLATMGAGSLPEEVNETCMKLSLPIVYSKRSMDGMVPIANVPKKGSKEDNLIASGYLSPEKSRILLQLCLAGNYTLEEIKHVFTGVYGG
K0.5 [2]: 75 ± 27 µM
Vmax [2]: 0.042 µmol/min
kcat [2]: 217 ± 14 s⁻¹
